Source: article PMC12754688 (Gut Microbes, 2025)

Key:
Conditions in all cases: both partners purified
[1] = target: T1, cholera toxin B-subunit pentamer (Vibrio cholerae; ctxB genotype of …, UniProt P01556); assay: BLI
T1 construct: source: bought: Sigma-Aldrich (C9903)

[2] = target: T2, cholera toxin holotoxin (AB5) (Vibrio cholerae; strain/ctxB genotype …, UniProt P01555;P01556); assay: SEC
T2 construct: source: Vibrio natriegens, from culture medium, purified (D-galactose column, SEC); copies: 1 + 5
T2 sequence (P01556 22-124, looked up, chain 1 of 2): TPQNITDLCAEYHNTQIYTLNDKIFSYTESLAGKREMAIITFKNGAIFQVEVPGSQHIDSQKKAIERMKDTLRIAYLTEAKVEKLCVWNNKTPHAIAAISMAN
T2 sequence (P01555 whole entry, looked up, chain 2 of 2): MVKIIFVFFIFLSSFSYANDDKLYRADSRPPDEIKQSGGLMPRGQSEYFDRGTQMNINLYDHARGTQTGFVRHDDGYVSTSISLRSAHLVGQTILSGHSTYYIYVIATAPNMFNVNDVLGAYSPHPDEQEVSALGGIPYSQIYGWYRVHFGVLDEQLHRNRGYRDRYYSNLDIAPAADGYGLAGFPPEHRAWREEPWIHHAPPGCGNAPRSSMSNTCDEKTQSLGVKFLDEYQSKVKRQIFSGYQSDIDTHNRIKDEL

[3] = target: T3, heat-labile enterotoxin B-subunit pentamer (LTB-6HIS-3FLAG) (Escherichia coli (ETEC), human-type …, UniProt P0CK94, biotin (NHS-PEG4-Biotin) in the DELFIA experiments only); assay: BLI; Octet RED96; […] (76 nM) […] (120–0.470 nM); […]
[4] = target: T3, heat-labile enterotoxin B-subunit …; assay: SPR; Biacore 8K+; […] (1–300 nM); single-cycle kinetics, HBS-EP+, 30 µl min^−1, 25 °C; global 1:1 model
[5] = target: T3, heat-labile enterotoxin B-subunit …; assay: SPR; Biacore 8K+; […] (1–300 nM); single-cycle kinetics, HBS-EP+, 30 µl min^−1, 25 °C; global 1:1 model; […]
[6] = target: T4, LTB pentamer (receptor-binding B-subunit of heat-labile enterotoxin), LTB-6HIS-3FLAG (Escherichia coli (ETEC), human-type …, UniProt P0CK94); assay: BLI; Octet RED96; […] (76 nM) […] (120-0.470 nM); global 1:1 ([…]) fit; […]
T4 construct: source: E. coli BL21 (DE3), periplasmic extract, purified (IMAC)

[7] = target: T5, CTXB pentamer (receptor-binding B-subunit of cholera toxin) (Vibrio cholerae; ctxB genotype of …, UniProt P01556); assay: as above
T5 construct: source: bought: Sigma-Aldrich (C9903)

[8] = target: T4, LTB pentamer (receptor-binding …); assay: SPR; Biacore 8K+; […] (1 µg/ml) […] (1-300 nM), single-cycle kinetics, HBS-EP+, 30 µl/min, 25 °C; global 1:1 fit; […]
[9] = target: T5, CTXB pentamer (receptor-binding …); assay: as above
[10] = target: T4, LTB pentamer (receptor-binding …); assay: SPR; Biacore 8K+; […] (5 µg/ml) […] (1-300 nM), single-cycle kinetics, HBS-EP+, 30 µl/min, 25 °C; global 1:1 fit; […]
[11] = target: T5, CTXB pentamer (receptor-binding …); assay: as above

B1: monovalent VHH BL2.1 (VHH)
VHH: QVQLQQSGGGLVQAGGSLRLSCAASGFTFDDYAIGWFRQAPGKEREGISSIVGSDNYTWYTDSVKGRFTISSDNTRSTVYLQMNSLKPEDTAVYYCAADSYSDYVSLNPETFGSWGQGTQVTVSS
notes: also called LT109; non-N-glycosylated BL2.1; source: E. coli BL21 (DE3), periplasmic extract, purified (IMAC, cation exchange)
B1 was tested, and the Kd [1] was 330 pM, the binding result [2] was “binds” and the Kd [3] was < 1 pM. The Kd [4] was 260 pM and the Kd [5] was 3 pM.

B2: BL2.1 (monovalent VHH) (VHH)
VHH: QVQLQQSGGGLVQAGGSLRLSCAASGFTFDDYAIGWFRQAPGKEREGISSIVGSDNYTWYTDSVKGRFTISSDNTRSTVYLQMNSLKPEDTAVYYCAADSYSDYVSLNPETFGSWGQGTQVTVSS
notes: also called LT109; VHH BL2.1; source: E. coli BL21 (DE3), periplasmic extract, purified (IMAC, cation exchange)
B2 was tested, and the koff [6] was < 1e-07 s⁻¹, the kon [6] was 69700 M⁻¹ s⁻¹ and the koff [7] was 3.53e-05 s⁻¹. The kon [7] was 108000 M⁻¹ s⁻¹, the koff [8] was 2.48e-05 s⁻¹ and the kon [8] was 7.93e+06 M⁻¹ s⁻¹. The koff [9] was 0.000212 s⁻¹, the kon [9] was 557000 M⁻¹ s⁻¹ and the koff [10] was 0.000182 s⁻¹. It also gave a kon [10] of 696000 M⁻¹ s⁻¹, a koff [11] of 0.00179 s⁻¹ and a kon [11] of 218000 M⁻¹ s⁻¹.
